Consider two molecules from PMC9723622, “PARP1 proximity proteomics reveals interaction partners at stressed replication forks” (Nucleic Acids Research, 2022).

For the assay, the target named is T1, recombinant PARP1 (human, UniProt P09874 1-1014).
T1 construct: PARP1, recombinant; also called purified PARP1; source: recombinant, purified
In words: pull-down; His-GFP-TPX2 proteins immobilised on GFP-Trap beads, equimolar recombinant PARP1 added, 2 h 4°C; 20 mM Tris-HCl pH 7.5, 250 mM NaCl, 0.2% glycerol, 0.2% Triton X-100; Western blot. Particulars: both partners purified. Background: A western blot detects proteins with antibodies after separation by electrophoresis.

T1 sequence (P09874 whole entry): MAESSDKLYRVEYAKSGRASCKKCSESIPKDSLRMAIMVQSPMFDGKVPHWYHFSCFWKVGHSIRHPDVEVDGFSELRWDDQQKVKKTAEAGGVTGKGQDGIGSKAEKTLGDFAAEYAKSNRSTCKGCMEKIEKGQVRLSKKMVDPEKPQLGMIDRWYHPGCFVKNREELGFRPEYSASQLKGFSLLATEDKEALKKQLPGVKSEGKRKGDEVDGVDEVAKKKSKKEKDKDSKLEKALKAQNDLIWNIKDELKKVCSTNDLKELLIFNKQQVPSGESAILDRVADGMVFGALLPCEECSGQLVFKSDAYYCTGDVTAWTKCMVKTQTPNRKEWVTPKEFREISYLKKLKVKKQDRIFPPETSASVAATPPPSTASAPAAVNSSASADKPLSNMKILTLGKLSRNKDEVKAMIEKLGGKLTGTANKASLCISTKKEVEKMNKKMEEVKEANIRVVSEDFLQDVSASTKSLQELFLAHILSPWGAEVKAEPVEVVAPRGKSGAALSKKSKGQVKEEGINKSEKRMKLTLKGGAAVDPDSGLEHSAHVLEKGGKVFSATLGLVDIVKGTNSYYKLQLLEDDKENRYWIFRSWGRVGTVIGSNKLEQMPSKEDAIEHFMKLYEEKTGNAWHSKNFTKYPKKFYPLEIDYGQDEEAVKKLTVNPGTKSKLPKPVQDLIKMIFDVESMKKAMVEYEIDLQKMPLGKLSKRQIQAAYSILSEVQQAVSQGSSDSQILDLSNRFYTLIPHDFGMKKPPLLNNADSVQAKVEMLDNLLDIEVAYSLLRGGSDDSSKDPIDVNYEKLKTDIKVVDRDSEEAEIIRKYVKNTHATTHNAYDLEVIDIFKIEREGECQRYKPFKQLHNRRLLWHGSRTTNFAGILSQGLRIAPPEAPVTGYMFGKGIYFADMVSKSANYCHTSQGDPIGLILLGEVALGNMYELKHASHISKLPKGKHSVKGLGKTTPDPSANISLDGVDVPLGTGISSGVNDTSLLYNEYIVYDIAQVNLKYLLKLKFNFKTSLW

B1: His-GFP-tagged TPX2 full-length protein (recombinant) (natural protein, UniProt Q9ULW0 1-747, looked up)
chain: MSQVKSSYSYDAPSDFINFSSLDDEGDTQNIDSWFEEKANLENKLLGKNGTGGLFQGKTPLRKANLQQAIVTPLKPVDNTYYKEAEKENLVEQSIPSNACSSLEVEAAISRKTPAQPQRRSLRLSAQKDLEQKEKHHVKMKAKRCATPVIIDEILPSKKMKVSNNKKKPEEEGSAHQDTAEKNASSPEKAKGRHTVPCMPPAKQKFLKSTEEQELEKSMKMQQEVVEMRKKNEEFKKLALAGIGQPVKKSVSQVTKSVDFHFRTDERIKQHPKNQEEYKEVNFTSELRKHPSSPARVTKGCTIVKPFNLSQGKKRTFDETVSTYVPLAQQVEDFHKRTPNRYHLRSKKDDINLLPSKSSVTKICRDPQTPVLQTKHRARAVTCKSTAELEAEELEKLQQYKFKARELDPRILEGGPILPKKPPVKPPTEPIGFDLEIEKRIQERESKKKTEDEHFEFHSRPCPTKILEDVVGVPEKKVLPITVPKSPAFALKNRIRMPTKEDEEEDEPVVIKAQPVPHYGVPFKPQIPEARTVEICPFSFDSRDKERQLQKEKKIKELQKGEVPKFKALPLPHFDTINLPEKKVKNVTQIEPFCLETDRRGALKAQTWKHQLEEELRQQKEAACFKARPNTVISQEPFVPKKEKKSVAEGLSGSLVQEPFQLATEKRAKERQELEKRMAEVEAQKAQQLEEARLQEEEQKKEELARLRRELVHKANPIRKYQGLEIKSSDQPLTVPVSPKFSTRFHC
notes: TPX2, full length; also called recombinant TPX2; full-length TPX2; source: recombinant, purified
For the molecule B1, the binding result was “binds”.

B2: His-GFP-tagged TPX2 N-terminal part (1–254 amino acids), recombinant (domain or fragment, UniProt Q9ULW0 1-254, looked up)
chain: MSQVKSSYSYDAPSDFINFSSLDDEGDTQNIDSWFEEKANLENKLLGKNGTGGLFQGKTPLRKANLQQAIVTPLKPVDNTYYKEAEKENLVEQSIPSNACSSLEVEAAISRKTPAQPQRRSLRLSAQKDLEQKEKHHVKMKAKRCATPVIIDEILPSKKMKVSNNKKKPEEEGSAHQDTAEKNASSPEKAKGRHTVPCMPPAKQKFLKSTEEQELEKSMKMQQEVVEMRKKNEEFKKLALAGIGQPVKKSVSQV
notes: also called TPX2_254only; source: recombinant, purified
Take B2: the binding result is “binds”.
